B1: Wild-type RecA (RecA-wt) (natural protein, E. coli, UniProt P0A7G6 1-353, looked up)
chain: MAIDENKQKALAAALGQIEKQFGKGSIMRLGEDRSMDVETISTGSLSLDIALGAGGLPMGRIVEIYGPESSGKTTLTLQVIAAAQREGKTCAFIDAEHALDPIYARKLGVDIDNLLCSQPDTGEQALEICDALARSGAVDVIVVDSVAALTPKAEIEGEIGDSHMGLAARMMSQAMRKLAGNLKQSNTLLIFINQIRMKIGVMFGNPETTTGGNALKFYASVRLDIRRIGAVKEGENVVGSETRVKVVKNKIAAPFKQAEFQILYGEGINFYGELVDLGVKEKLIEKAGAWYSYKGEKIGQGKANATAWLKDNPETAKEIEKKVRELLLSNPNSTPDFSVDDSEGVAETNEDF
notes: wild-type RecA, Escherichia coli; source: purified as previously described (21,33)
B2: OL2 90-mer ssDNA (ssDNA)
DNA: AAATCAATCTAAAGTATATATGAGTAAACTTGGTCTGACAGTTACCAATGCTTAATCAGTGAGGCACCTATCTCAGCGATCTGTCTATTT

Experiments:
[1] = biological target: the molecule itself; experiment: scanning-probe microscopy in dynamic force mode (DFM); RecA variant (0.2 μM RecA-wt or npRecA dimer, 0.8 μM npRecA monomer) incubated with linear pUC119 dsDNA (2.0 μM), ATPγS (0.5 mM), MgCl2 (10 mM), Tris-HCl pH 7.5, DTT, 30 min at 37°C; fixed with glutaraldehyde (0.2%) on mica; filament formation on DNA; also done with circular phage ssDNA
RecA-3mΔC = RecA-3mΔC (UniProt P0A7G6 2-337, C117M;S118V;Q119R); experiment: EMSA; 1.3 mM ATP; 'defective'; EMSA: standard reaction buffer (composition not in material), 4.5 uM (nt) ssDNA or 9.0 uM dsDNA, agarose gel, no fixation; 6-MI: 25 mM Tris-HCl pH 7.5, 10 mM MgCl2, 1 mM DTT, 25 C, 3.0 uM DNA; DFM: 0.5 mM ATPgS, 10 mM MgCl2, glutaraldehyde fixation; settings: protein: recombinant; label: FAM
RecA-3mΔC, sequence (P0A7G6 2-337 C117M/S118V/Q119R): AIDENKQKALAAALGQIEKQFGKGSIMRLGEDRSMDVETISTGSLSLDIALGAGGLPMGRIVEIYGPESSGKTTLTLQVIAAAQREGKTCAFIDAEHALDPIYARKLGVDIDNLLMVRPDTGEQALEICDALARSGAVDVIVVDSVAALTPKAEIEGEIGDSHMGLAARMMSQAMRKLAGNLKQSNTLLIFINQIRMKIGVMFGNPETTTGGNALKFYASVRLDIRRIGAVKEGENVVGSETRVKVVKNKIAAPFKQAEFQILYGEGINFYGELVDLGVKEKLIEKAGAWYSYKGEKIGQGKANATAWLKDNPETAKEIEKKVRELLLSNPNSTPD

npRecA monomer = npRecA monomer (UniProt P0A7G6 31-337, C117M;S118V;Q119R); experiment: EMSA; no nucleotide cofactor; EMSA: standard reaction buffer (composition not in material), 4.5 uM (nt) ssDNA or 9.0 uM dsDNA, agarose gel, no fixation; 6-MI: 25 mM Tris-HCl pH 7.5, 10 mM MgCl2, 1 mM DTT, 25 C, 3.0 uM DNA; DFM: 0.5 mM ATPgS, 10 mM MgCl2, glutaraldehyde fixation; settings: protein: recombinant; label: FAM
npRecA monomer, sequence (P0A7G6 31-337 C117M/S118V/Q119R): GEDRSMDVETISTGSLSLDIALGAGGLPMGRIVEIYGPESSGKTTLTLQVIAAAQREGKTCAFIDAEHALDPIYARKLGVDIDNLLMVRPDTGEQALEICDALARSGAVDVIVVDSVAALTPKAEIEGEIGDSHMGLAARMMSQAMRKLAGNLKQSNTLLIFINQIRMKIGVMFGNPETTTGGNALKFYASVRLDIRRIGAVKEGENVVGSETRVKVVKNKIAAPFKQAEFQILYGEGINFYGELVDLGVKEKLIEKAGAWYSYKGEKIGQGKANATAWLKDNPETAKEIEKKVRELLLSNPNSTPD

Binder | binding result [1] | binding result (RecA-3mΔC) | binding result (npRecA monomer)
B1 | binds |  | 
B2 |  | no binding | no binding

From paper PMC6237804, “Nonfilament-forming RecA dimer catalyzes homologous joint formation” (Nucleic Acids Research, 2018)
